Results from article PMC10397247.

How the values were obtained:
4H2576-bH = target: T1, 4H2576-bH; assay: two-hybrid library CCNG1;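 further: natural log of median RNA to DNA barcode read ratio; higher means stronger binding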
T1 chain: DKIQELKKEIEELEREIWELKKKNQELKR

4H2610-bH = target: T2, 4H2610-bH; assay: two-hybrid library CCNG1;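 further: natural log of median RNA to DNA barcode read ratio; higher means stronger binding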
T2 chain: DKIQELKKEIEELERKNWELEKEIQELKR

4H2618-bH = target: T3, 4H2618-bH; assay: two-hybrid library CCNG1;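 further: natural log of median RNA to DNA barcode read ratio; higher means stronger binding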
T3 chain: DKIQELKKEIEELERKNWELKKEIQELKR

4H2667-bH = target: T4, 4H2667-bH; assay: two-hybrid library CCNG1;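 further: natural log of median RNA to DNA barcode read ratio; higher means stronger binding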
T4 chain: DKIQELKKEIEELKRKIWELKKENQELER

4H2697-bH = target: T5, 4H2697-bH; assay: two-hybrid library CCNG1
T5 chain: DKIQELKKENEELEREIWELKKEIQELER

4H2729-bH = target: T6, 4H2729-bH; assay: two-hybrid library CCNG1
T6 chain: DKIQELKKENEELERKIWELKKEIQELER

4H3112-bH = target: T7, 4H3112-bH; assay: two-hybrid library CCNG1
T7 chain: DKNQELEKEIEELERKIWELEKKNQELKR

4H3185-bH = target: T8, 4H3185-bH; assay: two-hybrid library CCNG1
T8 chain: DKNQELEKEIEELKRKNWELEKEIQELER

4H3189-bH = target: T9, 4H3189-bH; assay: two-hybrid library CCNG1
T9 chain: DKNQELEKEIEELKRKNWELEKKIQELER

4H331-bH = target: T10, 4H331-bH; assay: two-hybrid library CCNG1
T10 chain: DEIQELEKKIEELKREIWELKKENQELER

4H3354-bH = target: T11, 4H3354-bH; assay: two-hybrid library CCNG1
T11 chain: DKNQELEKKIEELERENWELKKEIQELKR

4H338-bH = target: T12, 4H338-bH; assay: two-hybrid library CCNG1
T12 chain: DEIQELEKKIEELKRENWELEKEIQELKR

4H3427-bH = target: T13, 4H3427-bH; assay: two-hybrid library CCNG1
T13 chain: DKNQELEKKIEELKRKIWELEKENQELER

4H3606-bH = target: T14, 4H3606-bH; assay: two-hybrid library CCNG1
T14 chain: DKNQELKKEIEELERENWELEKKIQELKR

4H370-bH = target: T15, 4H370-bH; assay: two-hybrid library CCNG1
T15 chain: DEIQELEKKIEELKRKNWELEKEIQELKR

4H3782-bH = target: T16, 4H3782-bH; assay: two-hybrid library CCNG1
T16 chain: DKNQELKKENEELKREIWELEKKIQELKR

4H3843-bH = target: T17, 4H3843-bH; assay: two-hybrid library CCNG1
T17 chain: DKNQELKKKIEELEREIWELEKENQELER

4H3855-bH = target: T18, 4H3855-bH; assay: two-hybrid library CCNG1
T18 chain: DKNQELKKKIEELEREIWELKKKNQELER

4H4001-bH = target: T19, 4H4001-bH; assay: two-hybrid library CCNG1
T19 chain: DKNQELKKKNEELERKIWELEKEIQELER

4H454-bH = target: T20, 4H454-bH; assay: two-hybrid library CCNG1
T20 chain: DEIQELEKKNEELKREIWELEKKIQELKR

4H462-bH = target: T21, 4H462-bH; assay: two-hybrid library CCNG1
T21 chain: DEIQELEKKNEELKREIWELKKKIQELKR

4H568-bH = target: T22, 4H568-bH; assay: two-hybrid library CCNG1
T22 chain: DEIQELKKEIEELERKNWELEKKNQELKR

4H607-bH = target: T23, 4H607-bH; assay: two-hybrid library CCNG1
T23 chain: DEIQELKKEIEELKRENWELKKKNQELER

4H687-bH = target: T24, 4H687-bH; assay: two-hybrid library CCNG1
T24 chain: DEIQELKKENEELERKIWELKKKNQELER

4H717-bH = target: T25, 4H717-bH; assay: two-hybrid library CCNG1
T25 chain: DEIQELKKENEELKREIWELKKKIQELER

4H72-bH = target: T26, 4H72-bH; assay: two-hybrid library CCNG1
T26 chain: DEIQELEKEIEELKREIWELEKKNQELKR

4H754-bH = target: T27, 4H754-bH; assay: two-hybrid library CCNG1
T27 chain: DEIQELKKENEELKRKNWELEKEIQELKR

4H797-bH = target: T28, 4H797-bH; assay: two-hybrid library CCNG1
T28 chain: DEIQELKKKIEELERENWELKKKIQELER

4H883-bH = target: T29, 4H883-bH; assay: two-hybrid library CCNG1
T29 chain: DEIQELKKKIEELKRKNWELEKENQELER

4H908-bH = target: T30, 4H908-bH; assay: two-hybrid library CCNG1
T30 chain: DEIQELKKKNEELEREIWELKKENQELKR

4H918-bA = target: T31, 4H918-bA; assay: two-hybrid library CCNG1
T31 chain: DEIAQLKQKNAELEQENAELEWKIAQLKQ

4H918-bH = target: T32, 4H918-bH; assay: two-hybrid library CCNG1
T32 chain: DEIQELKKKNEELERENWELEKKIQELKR

4H953-bA = target: T33, 4H953-bA; assay: two-hybrid library CCNG1
T33 chain: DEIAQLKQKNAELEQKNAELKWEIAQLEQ

4H953-bH = target: T34, 4H953-bH; assay: two-hybrid library CCNG1
T34 chain: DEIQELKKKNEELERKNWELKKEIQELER

4H967-bH = target: T35, 4H967-bH; assay: two-hybrid library CCNG1
T35 chain: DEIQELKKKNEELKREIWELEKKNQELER

4H3632-bH = target: T36, 4H3632-bH; assay: two-hybrid library CCNG1
T36 chain: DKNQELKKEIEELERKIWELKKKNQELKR

4H496-bH = target: T37, 4H496-bH; assay: two-hybrid library CCNG1
T37 chain: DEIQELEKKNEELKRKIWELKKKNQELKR

4H1558-AA = target: T38, 4H1558-AA; assay: two-hybrid library CCmax
T38 chain: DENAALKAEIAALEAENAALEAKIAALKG

4H1867-AA = target: T39, 4H1867-AA; assay: two-hybrid library CCmax
T39 chain: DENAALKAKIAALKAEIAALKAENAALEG

4H1913-AA = target: T40, 4H1913-AA; assay: two-hybrid library CCmax; settings: mean of both orientations
T40 chain: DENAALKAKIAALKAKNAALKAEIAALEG

4H249-AA = target: T41, 4H249-AA; assay: two-hybrid library CCmax; settings: mean of both orientations
T41 chain: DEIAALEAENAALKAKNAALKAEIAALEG

4H2580-AA = target: T42, 4H2580-AA; assay: two-hybrid library CCmax; settings: mean of both orientations
T42 chain: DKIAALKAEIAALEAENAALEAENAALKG

4H2608-AA = target: T43, 4H2608-AA; assay: two-hybrid library CCmax
T43 chain: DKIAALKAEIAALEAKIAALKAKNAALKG

4H2621-AA = target: T44, 4H2621-AA; assay: two-hybrid library CCmax; settings: mean of both orientations
T44 chain: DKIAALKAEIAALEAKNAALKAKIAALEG

4H2699-AA = target: T45, 4H2699-AA; assay: two-hybrid library CCmax; settings: mean of both orientations
T45 chain: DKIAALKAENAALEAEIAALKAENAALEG

4H2728-AA = target: T46, 4H2728-AA; assay: two-hybrid library CCmax; settings: mean of both orientations
T46 chain: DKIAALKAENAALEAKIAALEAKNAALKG

4H2774-AA = target: T47, 4H2774-AA; assay: two-hybrid library CCmax; settings: mean of both orientations
T47 chain: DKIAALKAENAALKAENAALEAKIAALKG

4H2903-AA = target: T48, 4H2903-AA; assay: two-hybrid library CCmax; settings: mean of both orientations
T48 chain: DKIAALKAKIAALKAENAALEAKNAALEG

4H2961-AA = target: T49, 4H2961-AA; assay: two-hybrid library CCmax; settings: mean of both orientations
T49 chain: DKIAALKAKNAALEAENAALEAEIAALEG

4H3049-AA = target: T50, 4H3049-AA; assay: two-hybrid library CCmax; settings: mean of both orientations
T50 chain: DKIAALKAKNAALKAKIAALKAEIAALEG

4H3129-AA = target: T51, 4H3129-AA; assay: two-hybrid library CCmax; settings: mean of both orientations
T51 chain: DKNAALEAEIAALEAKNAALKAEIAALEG

4H341-AA = target: T52, 4H341-AA; assay: two-hybrid library CCmax; settings: mean of both orientations
T52 chain: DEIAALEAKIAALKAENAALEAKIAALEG

4H3414-AA = target: T53, 4H3414-AA; assay: two-hybrid library CCmax; settings: mean of both orientations
T53 chain: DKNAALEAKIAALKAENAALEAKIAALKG

4H3595-AA = target: T54, 4H3595-AA; assay: two-hybrid library CCmax; settings: mean of both orientations
T54 chain: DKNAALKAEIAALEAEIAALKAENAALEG

4H3629-AA = target: T55, 4H3629-AA; assay: two-hybrid library CCmax; settings: mean of both orientations
T55 chain: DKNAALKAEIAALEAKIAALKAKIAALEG

4H3782-AA = target: T56, 4H3782-AA; assay: two-hybrid library CCmax; settings: mean of both orientations
T56 chain: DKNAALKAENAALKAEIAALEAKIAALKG

4H380-AA = target: T57, 4H380-AA; assay: two-hybrid library CCmax; settings: mean of both orientations
T57 chain: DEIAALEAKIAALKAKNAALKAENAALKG

4H3939-AA = target: T58, 4H3939-AA; assay: two-hybrid library CCmax; settings: mean of both orientations
T58 chain: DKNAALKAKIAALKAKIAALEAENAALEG

4H3969-AA = target: T59, 4H3969-AA; assay: two-hybrid library CCmax; settings: mean of both orientations
T59 chain: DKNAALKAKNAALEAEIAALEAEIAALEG

4H446-AA = target: T60, 4H446-AA; assay: two-hybrid library CCmax; settings: mean of both orientations
T60 chain: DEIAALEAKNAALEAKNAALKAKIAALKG

4H464-AA = target: T61, 4H464-AA; assay: two-hybrid library CCmax; settings: mean of both orientations
T61 chain: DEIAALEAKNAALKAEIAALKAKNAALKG

4H483-AA = target: T62, 4H483-AA; assay: two-hybrid library CCmax; settings: mean of both orientations
T62 chain: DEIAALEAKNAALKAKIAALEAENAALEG

4H63-AA = target: T63, 4H63-AA; assay: two-hybrid library CCmax; settings: mean of both orientations
T63 chain: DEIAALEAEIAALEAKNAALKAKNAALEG

Binder: DKIQELKKEIEELEREIWELKKKNQELKR [4H2576-bH]
- interaction score (4H2576-bH): 0.71
- interaction score (4H2610-bH): -0.788
- interaction score (4H2618-bH): 1.01
- interaction score (4H2667-bH): 0.467
- interaction score (4H2697-bH): -0.201
- interaction score (4H2729-bH): 1.93
- interaction score (4H3112-bH): 0.913
- interaction score (4H3185-bH): 0.137
- interaction score (4H3189-bH): 0.969
- interaction score (4H331-bH): 1.97
- interaction score (4H3354-bH): -0.952
- interaction score (4H338-bH): 0.794
- interaction score (4H3427-bH): 1.73
- interaction score (4H3606-bH): -2.37
- interaction score (4H370-bH): 1.62
- interaction score (4H3782-bH): -0.128
- interaction score (4H3843-bH): 1.11
- interaction score (4H3855-bH): 0.305
- interaction score (4H4001-bH): 1.28
- interaction score (4H454-bH): 1.67
- interaction score (4H462-bH): 0.615
- interaction score (4H568-bH): 0.102
- interaction score (4H607-bH): -1.37
- interaction score (4H687-bH): -0.475
- interaction score (4H717-bH): -1.86
- interaction score (4H72-bH): 0.621
- interaction score (4H754-bH): -2.65
- interaction score (4H797-bH): -0.961
- interaction score (4H883-bH): -0.465
- interaction score (4H908-bH): -1.34
- interaction score (4H918-bA): -0.341
- interaction score (4H918-bH): -0.721
- interaction score (4H953-bA): -1.63
- interaction score (4H953-bH): -0.152
- interaction score (4H967-bH): -3.3

Binder: DKNQELKKEIEELERKIWELKKKNQELKR [4H3632-bH]
- interaction score (4H3632-bH): -0.234
- interaction score (4H496-bH): -2.56

Binder: DENAALKAEIAALEAENAALEAKIAALKG [4H1558-AA]
- interaction score (4H1558-AA): 0.452
- interaction score (4H1867-AA): -1.23
- interaction score (4H1913-AA): 1.75
- interaction score (4H249-AA): 1.51
- interaction score (4H2580-AA): -1.57
- interaction score (4H2608-AA): -1.1
- interaction score (4H2621-AA): 1.29
- interaction score (4H2699-AA): -0.582
- interaction score (4H2728-AA): -0.226
- interaction score (4H2774-AA): -0.715
- interaction score (4H2903-AA): -0.294
- interaction score (4H2961-AA): -1.19
- interaction score (4H3049-AA): 1.32
- interaction score (4H3129-AA): 2.15
- interaction score (4H341-AA): 1.27
- interaction score (4H3414-AA): 1.1
- interaction score (4H3595-AA): -1.53
- interaction score (4H3629-AA): 0.444
- interaction score (4H3782-AA): -0.467
- interaction score (4H380-AA): 1.48
- interaction score (4H3939-AA): -0.411
- interaction score (4H3969-AA): -1.28
- interaction score (4H446-AA): -0.543
- interaction score (4H464-AA): 0.907
- interaction score (4H483-AA): 0.272
- interaction score (4H63-AA): -0.799
